Test [1] deals with human FcgRIa (human). Description: SPR.
The target in test [2] is T1, human FcgRIIb (human).
T1 chain: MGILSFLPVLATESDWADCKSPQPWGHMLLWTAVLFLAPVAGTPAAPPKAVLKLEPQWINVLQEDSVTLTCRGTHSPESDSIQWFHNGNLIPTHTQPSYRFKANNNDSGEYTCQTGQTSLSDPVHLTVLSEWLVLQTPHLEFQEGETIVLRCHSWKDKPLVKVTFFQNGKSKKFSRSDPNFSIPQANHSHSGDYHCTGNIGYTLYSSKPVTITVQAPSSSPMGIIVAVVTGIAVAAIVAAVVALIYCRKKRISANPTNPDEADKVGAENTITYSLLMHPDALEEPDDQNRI
The experiment in a line: SPR. In general terms: In SPR one partner is held on a chip, and binding of the other changes the refractive index at the surface.

The target of test [3] is human FcgRIa (human). The experiment in a line: SPR. This is another data set of the same source.
Test [4] deals with human FcgRIIIa(V) (human). The experiment in a line: SPR.
In test [5] the target is T2, human FcgRIIa(H) (human).
T2 chain: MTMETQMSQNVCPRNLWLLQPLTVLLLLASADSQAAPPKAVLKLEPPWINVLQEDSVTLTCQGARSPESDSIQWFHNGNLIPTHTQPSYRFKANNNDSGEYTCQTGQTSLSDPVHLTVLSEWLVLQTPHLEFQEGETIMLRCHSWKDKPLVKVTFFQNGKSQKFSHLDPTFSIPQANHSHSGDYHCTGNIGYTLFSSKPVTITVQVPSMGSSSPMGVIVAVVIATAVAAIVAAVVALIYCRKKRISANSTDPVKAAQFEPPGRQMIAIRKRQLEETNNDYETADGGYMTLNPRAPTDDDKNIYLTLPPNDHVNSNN
The experiment in a line: SPR.

Test [6] concerns the target T2, human FcgRIIa(H). The experiment in a line: SPR.
Test [7] has as its target human FcgRIa (human). Description: SPR. This is another data set of the same source.
Test [8] addresses human FcgRIIIa(V) (human). The experiment in a line: SPR. The source holds these as a separate data set.
Test [9] concerns the target T1, human FcgRIIb. Description: SPR.
Test [10] deals with T2, human FcgRIIa(H). The experiment in a line: SPR.
Test [11] deals with T1, human FcgRIIb. Description: SPR.
For test [12], the target named is T1, human FcgRIIb. The experiment in a line: SPR.
Test [13] addresses T3, human FcgRIIa(R) (human).
T3 chain: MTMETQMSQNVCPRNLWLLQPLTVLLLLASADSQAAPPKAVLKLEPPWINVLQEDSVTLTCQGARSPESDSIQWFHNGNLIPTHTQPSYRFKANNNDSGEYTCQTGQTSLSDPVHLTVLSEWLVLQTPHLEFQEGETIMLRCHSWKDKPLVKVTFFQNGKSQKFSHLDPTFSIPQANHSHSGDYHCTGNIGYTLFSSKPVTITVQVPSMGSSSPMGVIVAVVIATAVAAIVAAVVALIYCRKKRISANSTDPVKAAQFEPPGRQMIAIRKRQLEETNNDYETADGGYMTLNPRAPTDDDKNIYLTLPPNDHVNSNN
Description: SPR.

For test [14], the target named is T3, human FcgRIIa(R). Description: SPR.
The target in test [15] is human FcgRIIIa(V) (human). The experiment in a line: SPR. This is another data set of the same source.
For test [16], the target named is T3, human FcgRIIa(R). Description: SPR.
Test [17] has as its target T1, human FcgRIIb. The experiment in a line: SPR.
The target of test [18] is human FcRn (with beta2-microglobulin) (human). The experiment in a line: SPR, pH 7.0.
Test [19] has the same target. Description: SPR, pH 7.0. The source holds these as a separate data set.
Test [20] has the same target. Description: SPR, neutral pH.
The target is the same in test [21]. Description: SPR, pH 7.0. The source holds these as a separate data set.
The target is the same in test [22]. Description: SPR, pH 7.0. This is another data set of the same source.
Test [23] has the same target. Description: SPR, pH 7.0. This is another data set of the same source.
Test [24] shares this target. Description: SPR, pH 7.0. The source holds these as a separate data set.
For test [25] the target is unchanged. Description: SPR, pH 7.0. The source holds these as a separate data set.

Read-outs that look alike come from different tables or passages of the source.

Chain of human FcgRIa (human) (chain, as listed by the source): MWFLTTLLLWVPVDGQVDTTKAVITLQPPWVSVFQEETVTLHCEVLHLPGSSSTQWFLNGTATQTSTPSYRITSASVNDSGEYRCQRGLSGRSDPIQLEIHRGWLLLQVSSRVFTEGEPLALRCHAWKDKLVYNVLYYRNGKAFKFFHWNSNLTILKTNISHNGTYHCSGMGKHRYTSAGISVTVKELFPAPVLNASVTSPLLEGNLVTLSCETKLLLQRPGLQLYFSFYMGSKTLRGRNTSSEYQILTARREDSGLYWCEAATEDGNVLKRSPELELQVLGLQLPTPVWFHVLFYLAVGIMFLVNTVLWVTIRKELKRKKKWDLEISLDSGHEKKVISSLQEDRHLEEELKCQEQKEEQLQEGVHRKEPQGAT
Chain of human FcgRIIIa(V) (human) (chain, as listed by the source): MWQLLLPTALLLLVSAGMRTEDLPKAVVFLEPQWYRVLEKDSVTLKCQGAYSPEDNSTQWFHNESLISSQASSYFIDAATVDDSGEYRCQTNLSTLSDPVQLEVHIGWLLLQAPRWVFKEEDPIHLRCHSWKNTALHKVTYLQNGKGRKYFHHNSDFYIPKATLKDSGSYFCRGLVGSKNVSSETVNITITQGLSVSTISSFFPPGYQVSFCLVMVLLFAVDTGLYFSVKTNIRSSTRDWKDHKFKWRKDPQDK
Chain of human FcRn (with beta2-microglobulin) (human) (chain, as listed by the source, chain 1 of 2): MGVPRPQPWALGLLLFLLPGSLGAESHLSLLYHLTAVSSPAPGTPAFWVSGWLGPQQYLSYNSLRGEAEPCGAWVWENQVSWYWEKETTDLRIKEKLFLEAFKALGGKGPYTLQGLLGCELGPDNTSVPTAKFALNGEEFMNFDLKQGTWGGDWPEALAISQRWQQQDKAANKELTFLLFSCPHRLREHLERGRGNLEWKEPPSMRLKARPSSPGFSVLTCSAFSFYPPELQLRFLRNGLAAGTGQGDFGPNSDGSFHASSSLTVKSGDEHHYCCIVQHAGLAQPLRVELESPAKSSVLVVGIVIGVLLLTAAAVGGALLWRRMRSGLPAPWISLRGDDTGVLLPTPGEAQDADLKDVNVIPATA
Chain of human FcRn (with beta2-microglobulin) (human) (chain, as listed by the source, chain 2 of 2): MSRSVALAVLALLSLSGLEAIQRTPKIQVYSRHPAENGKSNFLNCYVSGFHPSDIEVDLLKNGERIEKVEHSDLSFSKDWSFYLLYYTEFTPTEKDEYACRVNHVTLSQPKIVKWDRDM

B1: IL6R-G1d/IL6R-L (IgG1) (antibody)
chain 1: not shown
chain 2: DIQMTQSPSSLSASVGDRVTITCRASQDISSYLNWYQQKPGKAPKLLIYYTSRLHSGVPSRFSGSGSGTDFTFTISSLQPEDIATYYCQQGNTLPYTFGQGTKVEIK
Take B1: the Kd with human FcgRIa [1] was 0.32 nM; in the test with human FcgRIIb [2], 5.3 µM; with human FcgRIa [3], 0.32 nM; in the test with human FcgRIIIa(V) [4], 350 nM; with human FcgRIIa(H) [5], 670 nM; with human FcgRIIa(H) [6], 670 nM. For the same molecule, the Kd with human FcgRIa [7] came to 0.32 nM; with human FcgRIIIa(V) [8], 350 nM; with human FcgRIIb [9] it was 2600 nM; in the test with human FcgRIIa(H) [10], 670 nM; with human FcgRIIb [11], 5.3 µM; in the test with human FcgRIIb [12], 2600 nM. The Kd amounted to 1000 nM with human FcgRIIa(R) [13]; 1000 nM in the test with human FcgRIIa(R) [14]; 350 nM in the test with human FcgRIIIa(V) [15]; 1000 nM in the test with human FcgRIIa(R) [16]; 2.6 µM in the test with human FcgRIIb [17].

B2: IL6R-F11/IL6R-L (antibody)
chain 1: not shown
chain 2: DIQMTQSPSSLSASVGDRVTITCRASQDISSYLNWYQQKPGKAPKLLIYYTSRLHSGVPSRFSGSGSGTDFTFTISSLQPEDIATYYCQQGNTLPYTFGQGTKVEIK
With B2, the Kd in the test with human FcgRIIa(H) [5] was 5000 nM; with human FcgRIa [7] it was 0.9 nM; in the test with human FcgRIIa(R) [14], 5000 nM; with human FcgRIIb [17] it was 6.8 µM.

B3: IL6R-B3/IL6R-L (antibody)
chain 1: not shown
chain 2: DIQMTQSPSSLSASVGDRVTITCRASQDISSYLNWYQQKPGKAPKLLIYYTSRLHSGVPSRFSGSGSGTDFTFTISSLQPEDIATYYCQQGNTLPYTFGQGTKVEIK
As to B3, the Kd in the test with human FcgRIa [1] worked out at 0.42 nM; with human FcgRIa [3] it was 0.42 nM; with human FcgRIIIa(V) [4], 330 nM; in the test with human FcgRIIa(H) [6], 770 nM; with human FcgRIIb [9] it was 3100 nM; with human FcgRIIa(H) [10] it was 770 nM. The Kd is 3100 nM with human FcgRIIb [12], 1100 nM in the test with human FcgRIIa(R) [13], 330 nM in the test with human FcgRIIIa(V) [15] and 1100 nM with human FcgRIIa(R) [16].

B4: IgG1-F21 (antibody)
chain 1: QVQLQESGPGLVKPSETLSLTCAVSGHSISHDHAWSWVRQPPGEGLEWIGFISYSGITNYNPSLQGRVTISRDNSKNTLYLQMNSLRAEDTAVYYCARSLARTTAMDYWGEGTLVTVSSASTKGPSVFPLAPSSKSTSGGTAALGCLVKDYFPEPVTVSWNSGALTSGVHTFPAVLQSSGLYSLSSVVTVPSSSLGTQTYICNVNHKPSNTKVDKKVEPKSCDKTHTCPPCPAPELLGGPSVFLFPPKPKDTLYISRTPEVTCVVVDVSHEDPEVKFNWYVDGVEVHNAKTKPREEQYNSTYRVVSVLTPLHQDWLNGKEYKCKVSNKALPAPIEKTISKAKGQPREPQVYTLPPSRDELTKNQVSLTCLVKGFYPSDIAVEWESNGQPENNYKTTPPVLDSDGSFFLYSKLTVDKSRWQQGNVFSCSVMHEALHYHYTQKSLSLSP
chain 2: not shown
As to B4, the equilibrium dissociation constant (Kd) in [18], in test [19] and in [20] was 30 nM in each case.

B5: F947 (antibody)
chain 1: QVQLQESGPGLVKPSETLSLTCAVSGHSISHDHAWSWVRQPPGEGLEWIGFISYSGITNYNPSLQGRVTISRDNSKNTLYLQMNSLRAEDTAVYYCARSLARTTAMDYWGEGTLVTVSSASTKGPSVFPLAPSSKSTSGGTAALGCLVKDYFPEPVTVSWNSGALTSGVHTFPAVLQSSGLYSLSSVVTVPSSSLGTQTYICNVNHKPSNTKVDKKVEPKSCDKTHTCPPCPAPELLGGPSVFLFPPKPKDVLYISRTPEVTCVVVDVSHEDPEVKFNWYVDGVEVHNAKTKPREEQYNSTYRVVSVLQPLHADWLNGKEYKCKVSNKALPAPIEKTISKAKGQPREPQVYTLPPSRDELTKNQVSLTCLVKGFYPSDIAVEWESNGQPENNYKTTPPVLDSDGSFFLYSKLTVDKSRWQQGNVFSCSVMHEALHYHVTQKSLSLSP
chain 2: not shown
In the case of B5, the Kd in test [21], in [22] and in [23] was 11 nM throughout.

B6: IgG1-F698 (antibody)
chain 1: QVQLQESGPGLVKPSETLSLTCAVSGHSISHDHAWSWVRQPPGEGLEWIGFISYSGITNYNPSLQGRVTISRDNSKNTLYLQMNSLRAEDTAVYYCARSLARTTAMDYWGEGTLVTVSSASTKGPSVFPLAPSSKSTSGGTAALGCLVKDYFPEPVTVSWNSGALTSGVHTFPAVLQSSGLYSLSSVVTVPSSSLGTQTYICNVNHKPSNTKVDKKVEPKSCDKTHTCPPCPAPELLGGPSVFLFPPKPKDTLYISRTPEVTCVVVDVSHEDPEVKFNWYVDGVEVHEAKTKPREEQYNSTYRVVSVLQVLHADWLNGKEYKCKVSNKALPAPIEKTISKAKGQPREPQVYTLPPSRDELTKNQVSLTCLVKGFYPSDIAVEWESNGQPENNYKTTPPVLDSDGSFFLYSKLTVDKSRWQQGNVFSCSVMHEALHYHYTQKSLSLSP
chain 2: not shown
For B6, the Kd in test [24] and in test [25] was 22 nM in each case.

B7: F1326 (antibody)
chain 1: QVQLQESGPGLVKPSETLSLTCAVSGHSISHDHAWSWVRQPPGEGLEWIGFISYSGITNYNPSLQGRVTISRDNSKNTLYLQMNSLRAEDTAVYYCARSLARTTAMDYWGEGTLVTVSSASTKGPSVFPLAPSSKSTSGGTAALGCLVKDYFPEPVTVSWNSGALTSGVHTFPAVLQSSGLYSLSSVVTVPSSSLGTQTYICNVNHKPSNTKVDKKVEPKSCDKTHTCPPCPAPEAAGGPSVFLFPPKPKDVLYISRTPEVTCVVVDVSHEDPEVKFNWYVDGVEVHNAKTKPREEQYNSTYRVVSVLQPLHADWLNGKEYKCKVSNKALPAPIEKTISKAKGQPREPQVYTLPPSRDELTKNQVSLTCLVKGFYPSDIAVEWESNGQPENNYKTTPPVLDSDGSFFLYSKLTVDKSRWQQGNVFSCSVMHEALHYHVTQKSLSLSP
chain 2: not shown
Consider B7, for which the Kd in test [21] and in [22] was 11 nM each time.

B8: IgG1-F763 (antibody)
chain 1: QVQLQESGPGLVKPSETLSLTCAVSGHSISHDHAWSWVRQPPGEGLEWIGFISYSGITNYNPSLQGRVTISRDNSKNTLYLQMNSLRAEDTAVYYCARSLARTTAMDYWGEGTLVTVSSASTKGPSVFPLAPSSKSTSGGTAALGCLVKDYFPEPVTVSWNSGALTSGVHTFPAVLQSSGLYSLSSVVTVPSSSLGTQTYICNVNHKPSNTKVDKKVEPKSCDKTHTCPPCPAPELRGGPKVFLFPPKPKDTLYISRTPEVTCVVVDVSHEDPEVKFNWYVDGVEVHEAKTKPREEQYNSTYRVVSVLQVLHADWLNGKEYKCKVSNKALPAPIEKTISKAKGQPREPQVYTLPPSRDELTKNQVSLTCLVKGFYPSDIAVEWESNGQPENNYKTTPPVLDSDGSFFLYSKLTVDKSRWQQGNVFSCSVMHEALHYHYTQKSLSLSP
chain 2: not shown
Molecule B8 showed a Kd in [24] of 35 nM.

B9: IgG1-F699 (antibody)
chain 1: QVQLQESGPGLVKPSETLSLTCAVSGHSISHDHAWSWVRQPPGEGLEWIGFISYSGITNYNPSLQGRVTISRDNSKNTLYLQMNSLRAEDTAVYYCARSLARTTAMDYWGEGTLVTVSSASTKGPSVFPLAPSSKSTSGGTAALGCLVKDYFPEPVTVSWNSGALTSGVHTFPAVLQSSGLYSLSSVVTVPSSSLGTQTYICNVNHKPSNTKVDKKVEPKSCDKTHTCPPCPAPELLGGPKVFLFPPKPKDTLYISRTPEVTCVVVDVSHEDPEVKFNWYVDGVEVHEAKTKPREEQYNSTYRVVSVLQVLHADWLNGKEYKCKVSNKALPAPIEKTISKAKGQPREPQVYTLPPSRDELTKNQVSLTCLVKGFYPSDIAVEWESNGQPENNYKTTPPVLDSDGSFFLYSKLTVDKSRWQQGNVFSCSVMHEALHYHYTQKSLSLSP
chain 2: not shown
In the case of B9, the Kd in test [25] came to 23 nM.

As a reminder, the Kd is a measure of binding affinity in units of concentration. Read a low Kd as a tighter complex.

The record behind these values is patent publication US10618965 (dated 2020).
